{"source": "paper PMC10646045", "experiment_in_all_cases": "nanopore single-molecule", "key": {"[1]": {"tested_on": "HCoV-NL63 spike protein (HCoV-NL63)", "conditions": "200 nM protein, 200 pM probe; SPR: DPBS running buffer, temperature not stated; nanopore: 2 M LiCl, 5 mM MgCl2, 10 mM Tris-HCl, 1 mM EDTA, pH 8, 300 mV, about 2 h incubation"}, "[2]": {"tested_on": "spike protein from lysed SARS-CoV-2 pseudovirus (SARS-CoV-2)"}, "[3]": {"tested_on": "HCoV-OC43 spike protein (HCoV-OC43)", "conditions": "200 nM protein, 200 pM probe; SPR: DPBS running buffer, temperature not stated; nanopore: 2 M LiCl, 5 mM MgCl2, 10 mM Tris-HCl, 1 mM EDTA, pH 8, 300 mV, about 2 h incubation"}, "[4]": {"biological_target": "SARS-CoV-2 spike protein S1 region (SARS-CoV-2) (UniProt P0DTC2)"}, "[5]": {"tested_on": "HCoV-229E nucleocapsid protein (HCoV-229E)", "conditions": "20 nM protein, 200 pM probe; SPR: DPBS running buffer, temperature not stated; nanopore: 2 M LiCl, 5 mM MgCl2, 10 mM Tris-HCl, 1 mM EDTA, pH 8, 300 mV, about 2 h incubation"}, "[6]": {"biological_target": "SARS-CoV-2 nucleocapsid protein (SARS-CoV-2) (UniProt P0DTC9)"}, "[7]": {"tested_on": "HCoV-OC43 nucleocapsid protein (HCoV-OC43)", "conditions": "20 nM protein, 200 pM probe; SPR: DPBS running buffer, temperature not stated; nanopore: 2 M LiCl, 5 mM MgCl2, 10 mM Tris-HCl, 1 mM EDTA, pH 8, 300 mV, about 2 h incubation"}}, "data": [{"substance": "SBA end-labelled 10 kbp molecular probe", "values": [{"measurement": "binding signal (% bound events)", "setting": "[1]", "result": 0.02}, {"measurement": "binding signal (% bound events)", "setting": "[2]", "result": 0.6}, {"measurement": "binding signal (% bound events)", "setting": "[3]", "result": 0.5}, {"measurement": "binding signal (% bound events)", "setting": "[4]", "result": 9.82}]}, {"substance": "NBA centre-labelled 10 kbp molecular probe", "values": [{"measurement": "binding signal (% bound events)", "setting": "[5]", "result": 0.31}, {"measurement": "binding signal (% bound events)", "setting": "[6]", "result": 5.71}, {"measurement": "binding signal (% bound events)", "setting": "[7]", "result": 0.83}]}]}
